In paper PMC7854983:
Read-outs that look alike come from different tables or passages of the source. One block for each molecule: values may come before it.

Legend:
[1] = target: GST-tagged YY1(Δ231-290) (UniProt P25490); test: SEC
[2] = test system: YY1 (SILAC extract); test: pull-down, SILAC MS
[3] = target: T1, YY1 (Homo sapiens, UniProt P25490 1-414); test: fluorescence anisotropy
[4] = target: T2, YY1 del231-290 (Homo sapiens, UniProt P25490 1-414, del231-290); test: fluorescence anisotropy
[5] = target: T1, YY1; test: fluorescence anisotropy; remark: listed apart in the source
[6] = target: T1, YY1; test: fluorescence anisotropy; remark: listed apart in the source
[7] = target: T2, YY1 del231-290; test: fluorescence anisotropy; remark: listed apart in the source
[8] = target: T1, YY1; test: fluorescence anisotropy; remark: listed apart in the source
[9] = target: GST-YY1 (Homo sapiens, UniProt P25490 1-414); test: fluorescence anisotropy

stoichiometry N [1]: 2
Molecule: GST-tagged YY1(Δ231-290) (from UniProt P25490 1-414)

Molecule: cMYC G4 biotin probe
binding signal (SILAC ratio G4/M4) [2]: 1.77

Molecule: hTEL G4 biotin probe
binding signal (SILAC ratio G4/M4) [2]: 2.02

Molecule: cKIT G4 biotin probe
binding signal (SILAC ratio G4/M4) [2]: 1.92

Molecule: AAAGGGTTAGGGTTAGGGTTAGGGAA (structured_DNA) [hTEL G4]
Kd [3]: 82 ± 5.3 nM

Molecule: TGAGGGTGGGGAGGGTGGGGA (structured_DNA) [cMYC G4]
binding result [4]: binds
Kd [3]: 26.3 ± 2.1 nM

Molecule: AGGGAGGGCGCTGGGAGGAGGG (structured_DNA) [cKIT G4]
Kd [3]: 26.7 ± 2.2 nM

Molecule: AGGGAGGGCTCTGTGAGGAGGG (ssDNA) [cKIT M4]
binding signal [5]: > 10 fold lower affinity than cKIT G4

Molecule: AAAGGGTTAGTGTTAGTGTTAGGGAA (ssDNA) [hTEL M4]
binding signal [6]: > 10 fold lower affinity than hTEL G4

Molecule: TGAGGGTGAGGAGTGTGGGGA (ssDNA) [cMYC M4]
binding signal [7]: ~10 fold lower affinity than cMYC G4
binding signal [8]: > 10 fold lower affinity than cMYC G4

B1: YY1 consensus motif duplex (dsDNA)
DNA 1: TCCACGGCAGCCGCCATCTTGGCT
DNA 2: AGCCAAGATGGCGGCTGCCGTGGA
Kd [9]: 11.6 ± 0.8 nM
